Test system: MS2 coat protein
Assay: apparent KD of MS2 coat protein; designed switch direction (-1 OFF switch, 1 ON switch): -1; higher = weaker reporter binding
Method in brief: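 The buffer was Tris-HCl pH 7.5 with KCl, MgCl2, BSA, DTT, tRNA and Tween-20. In it, SNAP-549-labelled MS2 coat protein was titrated in doubling steps from 0.7 or 1.5 nM to 3 µM over chip-bound RNA switches transcribed by stalled E. coli RNA polymerase on Illumina chips. Apparent KD is the per-design median over clusters of curve fits to normalised fluorescence.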

[1] = input ligand: microRNA oligo, concentration not stated
[2] = Eterna round: R95, input ligand: FMN 200 uM
[3] = Eterna round: R95, input ligand: microRNA oligo, concentration not stated
[4] = Eterna round: R95, input ligand: none

UUUUUGUAUGAAGGAUAUACUUAACAUGAGGAUCACCCAUGUGGUGUUGUGAGUGAGUGAGUUUAGUAGAAGGUCAAUUAUUUU [JMF's solution 24] (Eterna round: R96, puzzle: Exclusion NG 2)
apparent KD of MS2 coat protein (input ligand: FMN 200 uM): 843 nM
apparent KD of MS2 coat protein [1]: 346 nM
apparent KD of MS2 coat protein (input ligand: none): 361 nM

UUGACCCACGUCAGGAUAUCAAGAAAAGAGGCUCUUGAGAAGGGACAUGAGGAUCACCCAUGUAAGAAAUAAAU [Qumabibe] (puzzle: Brourd's mod of Exclusion 4)
apparent KD of MS2 coat protein [2]: 101 nM
apparent KD of MS2 coat protein [3]: 28.4 nM
apparent KD of MS2 coat protein [4]: 34.6 nM

GAUUAUGCGAGCUUUAGGGACAUGAGGAUCACCCAUGUUCGUCUUAUUAGUCUAAGUACACUGACAUACCUAAAUCU [JMF 61] (puzzle: Sensor v3, turn-off variant 1)
apparent KD of MS2 coat protein [2]: 13.3 nM
apparent KD of MS2 coat protein [3]: 14.2 nM
apparent KD of MS2 coat protein [4]: 12.4 nM

ACAAGCUUUUAGAUUCUUAACAUGAGGAUCACCCAUGUGCUCGUCUUAUUGGCCGGCCGGCCGCCGGCCGGCCGGCC (Eterna round: R97, puzzle: Sensor, turn-off variant 1)
apparent KD of MS2 coat protein (input ligand: FMN 200 uM): 43.6 nM
apparent KD of MS2 coat protein (input ligand: none): 40.9 nM

AAUUUAAUUAACAAGCUUUACAUGAGGAUCACCCAUGUGAUCAUGCUCGUCUUAGGUACAGGCUUCGGCCUGUACCA [Stov1/6-B1] (Eterna round: R97, puzzle: Sensor, turn-off variant 1)
apparent KD of MS2 coat protein (input ligand: FMN 200 uM): 49.7 nM
apparent KD of MS2 coat protein (input ligand: none): 55.5 nM

CUCUCGUGAGGAUAUCUCCGCGAGAAUAAUGUUACACGCGAAGAGAAGGCACAUGAGGAUCACCCAUGUUAAAC [Eternabot (L1) Solution 31] (Eterna round: R97, puzzle: Exclusion 4)
apparent KD of MS2 coat protein (input ligand: FMN 200 uM): 230 nM
apparent KD of MS2 coat protein (input ligand: none): 54.8 nM

CAGUACUGAGGAUAUACAUGAGGAUCACCCAUGUGUUCCAGCUAGGAGACUAGCAAGUGUAGAAGGCAGUACUG [jl-ex3-4.01 salish99 mod] (Eterna round: R97, puzzle: Exclusion 3)
apparent KD of MS2 coat protein (input ligand: FMN 200 uM): 293 nM
apparent KD of MS2 coat protein (input ligand: none): 434 nM

UAUAUAUAGUAAGGAUAUGUAUUAAUUUAAUAAACAGAAGGUACUGACAUGAGGAUCACCCAUGUUUUAGUGUGGGCAUGUAGA [JMF's solution 83] (Eterna round: R96, puzzle: Exclusion NG 1)
apparent KD of MS2 coat protein [1]: 64.3 nM

AAUUUGCAAGCGAGAUCCCACAUGAGGAUCACCCAUGUGCUCGUCUUAUAAGGUACUGUGACAAAAGUCACGGUACC [Mat - Sensor, turn-off var - Eli Mod - D95] (Eterna round: R97, puzzle: Sensor, turn-off variant 1)
apparent KD of MS2 coat protein (input ligand: FMN 200 uM): 16.6 nM
apparent KD of MS2 coat protein (input ligand: none): 16.8 nM

CUGUAACGAGCGUGAGCCUACAUGAGGAUCACCCAUGUGCUCGUCUUAUAACGUACUGUCACGUUAGUGAUAGUGCG [Sensor v3, turn-off variant 1 (MOD of Eli's v1-13 v.3)] (puzzle: Sensor v3, turn-off variant 1)
apparent KD of MS2 coat protein [2]: 115 nM
apparent KD of MS2 coat protein [3]: 297 nM
apparent KD of MS2 coat protein [4]: 104 nM

GUCGAUGUCAAAGGAUAUCAGCACGUUUAGUGCUGAGAAGGUUGAACAUGAGGAUCACCCAUGUAGAUCAUUAACGACUUAAUU [ENG1/10-A1] (Eterna round: R96, puzzle: Exclusion NG 1)
apparent KD of MS2 coat protein (input ligand: FMN 200 uM): 44.5 nM
apparent KD of MS2 coat protein [1]: 15.7 nM
apparent KD of MS2 coat protein (input ligand: none): 20.7 nM

AAGAGGUCAGGAUAUACGGGAAGAGAGAGAAGUAGAGGGUAACAUGAGGAUCACCCAUGUAGAAGGGACUAAGA [JR_Exclu2_Sub072] (puzzle: Exclusion 2)
apparent KD of MS2 coat protein [2]: 34.5 nM
apparent KD of MS2 coat protein [3]: 29.6 nM
apparent KD of MS2 coat protein [4]: 33.4 nM

AAUGACUGAGGAUAUUGUACUGCUGACAUGAGGAUCACCCAUGUAUGCUAACUCGGCCGUCGAGAAGGCAGUCAUG [BotMod 24 - Jieux - Exclusion 5] (Eterna round: R97, puzzle: Exclusion 5)
apparent KD of MS2 coat protein (input ligand: FMN 200 uM): 18.5 nM
apparent KD of MS2 coat protein (input ligand: none): 28 nM

CUUUAGUGAGGAUAUCAGUAGUAAUACAAUAGUAUUACUACUGAGAAGGCACAUGAGGAUCACCCAUGUUUCUC [Mat - Exclusion 4 - Mod of Omei - D78] (puzzle: Exclusion 4)
apparent KD of MS2 coat protein [3]: 28 nM

ACGCGUGGCUAGGAUAUGCAGAAAUCUAGCCAGGCAGAAGGAGCCACAUGAGGAUCACCCAUGUGGUGAUCCUC [eternacac ex6r4 sub1] (Eterna round: R97, puzzle: Exclusion 6)
apparent KD of MS2 coat protein (input ligand: FMN 200 uM): 10.8 nM
apparent KD of MS2 coat protein (input ligand: none): 9.98 nM

AAUUAGCAAGCGAGAUCUCACAUGAGGAUCACCCAUGUGCUCGUCUUAUAAGGUACUGUGACGAAAGUCACGGUACC [Mat - Sensor, turn-off var - Eli Mod - D40] (Eterna round: R97, puzzle: Sensor, turn-off variant 1)
apparent KD of MS2 coat protein (input ligand: FMN 200 uM): 14.8 nM
apparent KD of MS2 coat protein (input ligand: none): 15.8 nM

UUUUUUUUUGUGAGGAUAUACUUUUUUUUUUUUUUGUAGAAGGCACAUGAGGAUCACCCAUGUUUUUUUUUCUC [JR_BME4_Sub029] (puzzle: Brourd's mod of Exclusion 4)
apparent KD of MS2 coat protein [3]: 13.2 nM

— the supplement of paper PMC9170038
